This is an account of results in the RNAGym collection of RNA variant scans (doi:10.1073/pnas.2313332121).

To fix the notation:
B1: TPR t1 (parent)
chain: GACCAAUCUGCCCUCAGAGCUCGAGAACAUCUUCGGAUGCAGAGGAGGCAGGCUUCGGUGGCGCGAUAGCGCCAACGUCCUCAACCUCCAAUGCAUCCCACCACAUGAUGAUGCCUGAAGAGCCUUGGUUUUUUG

In the series the parent is B1. The series can be described thus: polymerase ribozyme fitness, log enrichment relative to wild type (log ratio); higher = more active; in vitro selection for triplet polymerase activity. In a few lines:
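Fitness measures genotype enrichment against wild-type enrichment on a logarithmic scale, with inverse-variance-weighted averaging of replicates. The logarithm is base 2, and genotypes were kept only with ≥10 input reads and ≥1 read per output in Illumina sequencing. The sequenced libraries came from one triplicate in vitro selection round, including frozen incubation at −7 °C, of PCR-built, transcribed mutant libraries of each subunit of a heterodimeric triplet polymerase ribozyme.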
For the variant C28U G52U C101U, the “polymerase ribozyme fitness (log ratio)” value was -4.04.
With G63C C88A C94A the figure was -2.47.
With A18U C89U the figure was -1.53.
The value for A95G A121U was 2.11.
For the variant C28U G113C C123G, the “polymerase ribozyme fitness (log ratio)” value was -3.9.
The value for G10U C28U G63A was -4.31.
With C28A U38G G60A the figure was -5.64.
The value for G44U G63U C115G was -3.72; that for C73G A95C was -2.83; that for C62A A118U was -1.56.
On to C3G C12A C114A G128C, for which the “polymerase ribozyme fitness (log ratio)” value was -3.31.
With A5C A43C G45A C56A A91G G113A the figure was -4.37.
The value for G57U U92A G120A A121C was -2.28.
The value for G44U C114U was -2.25.
As for C53A U106A G120U C123A, the “polymerase ribozyme fitness (log ratio)” value stood at 0.599.
The value for A6G C72U U112G was 0.809; that for A16C A90C was -4.52.
With C12A C53G U92C the figure was -1.45; with G45C G77A C82G C89G, -3.97; with G17A G77A, -3.49.
With C82U, the “polymerase ribozyme fitness (log ratio)” value is -0.201.
With G35U C82U the figure was -7.04; with C20U G61C, -2.87; with C12A A18G C20U A37U A50C C64U U92A, -4.28.
With U96G the figure was -0.532; with G61U C64U, -3.25.
The value for C8U A24G G113U C114U G122A was -1.73; that for C15G A43U was -3.43; that for C40U G57U G120C was 0.687.
For the variant C11U C22A C73A A83U, the “polymerase ribozyme fitness (log ratio)” value was -5.9.
With C49U G77A C123G the figure was 1.03; with G19U G36C A75G A111C U132A, -5.05; with A2U G110C U131A, -5.15.
As to G17U G52C G77U C123U, the “polymerase ribozyme fitness (log ratio)” value was -2.34.
Turning to C8A C13G A46U, the “polymerase ribozyme fitness (log ratio)” value was -1.07.
With C22U U78C the figure was -3.42; with C53A U59C, 0.311; with G10A G17U A18U C115U C123G U130A, -4.27.
The value for C31A C72U U92G G113U was -6.05.
With A5U C49U C70U the figure was -1.06; with C20U C34A, -4.05; with G19U A43G, -2.34.
Take A50U U81C: the “polymerase ribozyme fitness (log ratio)” value was -1.83.
With A18G C20U G39A A43G C49A A66U U78G the figure was -6.02; with C73U U130C, 0.504.
The value for A26C U54G A103C A105U U112C was -6.86.
With C15G C53G C56G G61A the figure was -3.41; with U38G C53G G69U C98A, -6.04; with G39C G48U A111U, -4.49.
Take C99U C115U: the “polymerase ribozyme fitness (log ratio)” value was -4.48.
The value for C70U C82G U106C was -1.36; that for C13U C56U U106G C114G was -4.09; that for U9G G17C A26G was -3.96.
As for C20A C53A C79U G110U, the “polymerase ribozyme fitness (log ratio)” value is -4.5.
The value for C72U U78A A90U C123U was -1.05; that for G69A C101U was -2.16; that for C13A C40A G71A was -4.02.
With C72A U78A G110C, the “polymerase ribozyme fitness (log ratio)” value was -4.71.
Consider U9G A26C, for which the “polymerase ribozyme fitness (log ratio)” value was -4.47.
With G42C C79U A95G U129C the figure was -2.57.
The value for A46C C53U U112A was 0.835.
The value for C28G U32C G69C U78C C86G G117U C123U was -7.36; that for A2U was -2.07.
Take C31U C53G C124A: the “polymerase ribozyme fitness (log ratio)” value is -3.5.
The value for A26G G44U G61A C99U G120U C124A was -3.22; that for G10A U54G G71C C102U A111U U129G was -5.93; that for C101A U130G was -2.8.
Turning to C70U U78C C101A, the “polymerase ribozyme fitness (log ratio)” value was -1.6.
The value for G19U G44U was -4.75; that for U14C A27U G44U C49A C94U G117C G127C was -7.98.
With C64U C89A the figure was -1.58; with C11U A18C C72G G127A, -5.18; with G71A C115A, -2.31.
For the variant C8G C123U, the “polymerase ribozyme fitness (log ratio)” value was 1.6.
With G39A U132A the figure was -0.367; with G60U A121C, 1.48.
With A18G G113A the figure was -1.78; with A6U C8G C72U C86G, -0.629; with A50U C64U A105C A118U, -4.51.
With C40U A46U G52A C70U the figure was -3.49.
Regarding G36A U54A U112A, the “polymerase ribozyme fitness (log ratio)” value is 1.22.
The value for G36C G44U A46C A50G G69U U78A C85A C124U was -4.01; that for G35U G48C A121C was -3.96; that for A6C G71C C82A U112A A118U was -0.912.
For the variant C11A C13G C72U C88G G113A, the “polymerase ribozyme fitness (log ratio)” value was -5.81.
As for G42A G69C, the “polymerase ribozyme fitness (log ratio)” value was -3.78.
The value for U81A U109A was -5.72.
With C15U C72G A100U U130A the figure was -2.29; with A46C C56A, -1.56; with C8G U38A U54G C62A C98A C123U, -7.56.
With A66C U96C the figure was -2.57; with C3A A26U, -4.19; with C73U C88U U125G, -1.1.
Regarding G23U C62A C99A G113U G127C, the “polymerase ribozyme fitness (log ratio)” value is -5.56.
The value for A43G C53G G69C was -2.9; that for G47A U59C C79G G120A G128A G135U was -5.95; that for A29U C94U A121U was -0.384.
With G39U U112C G127A the figure was -0.476.
With G44C U112G the figure was -1.07; with A41C G51U, -3.29.
As for G63A A105U U112A, the “polymerase ribozyme fitness (log ratio)” value is -3.65.
With C12A C114A the figure was -1.3; with G19A C85U C114G, -2.91.
The value for G63A C88U C97U G113C was -4.04.
With A43G G63U C115U the figure was -4.05; with G63U C70A U116A, -3.62; with G39A G61U A100C C123A, -1.14.
Take C11U U132A: the “polymerase ribozyme fitness (log ratio)” value is -0.17.
The value for U14G C40A was -2.06.
The value for C13G G57C U109A A111U was -4.71.
With C11A C123G the figure was 1.15; with A46U G71A C82G U87G, -1.78; with C22G C62G C104U G120A, -4.19.
For U78C A105G U112G, the “polymerase ribozyme fitness (log ratio)” value was -3.99.
As for U126G G127A, the “polymerase ribozyme fitness (log ratio)” value was -2.54.
The value for A18U G44A A46U G48C G61U C72U C98U was -5.97; that for C70G A74U was -4.98; that for A27C G36A G47C was -4.8.
The value for C3G G71U was -2.64; that for A83G A84C was -1.03.
The value for C11A C12U U38A G69C was -2.89.
In the case of G45C G61A, the “polymerase ribozyme fitness (log ratio)” value is 0.0573.
The value for C15G G39U C73G U112A G122U was -2.91; that for C70A U131A was -1.34.
Consider G58C C62U U133A, for which the “polymerase ribozyme fitness (log ratio)” value is -0.0723.
Regarding C34G C40U G113A C124A, the “polymerase ribozyme fitness (log ratio)” value is -7.14.
For the variant G63U A95U C124U G135A, the “polymerase ribozyme fitness (log ratio)” value was -0.147.
With C49U G63C C85U the figure was -1.05; with C3A A37U C82U U112C, -0.239; with C13U G60A G69A U112G, -5.04.
With U55A C85A C115G the figure was -3.37.
With U30G C56G U106A U125A the figure was -2.32; with C49G A91U C115A G128C U131A, -6.98; with G25C C70U C73G A121G U133G, -7.65.
In the case of G17U C28U G39A G110A, the “polymerase ribozyme fitness (log ratio)” value was -2.46.
In the case of C85A C88U U96G G113U, the “polymerase ribozyme fitness (log ratio)” value was -5.67.
The value for U59G C97A was -4.8.
With G63A C89A the figure was -3.19.
The value for C40U A50G U130C was -0.13; that for U7A C86G A90C was -1.43; that for A37C G45U G51U C73U was -4.53.
For U38G C56U C79G U81G U96C C104A G110C, the “polymerase ribozyme fitness (log ratio)” value is -5.98.
The value for A74U G110A C115U was -6.32.
For the variant C64G G120C, the “polymerase ribozyme fitness (log ratio)” value is -4.47.
The value for C72G U78G C97U was 0.186.
As to A6C U32A C64U A111G, the “polymerase ribozyme fitness (log ratio)” value is -4.1.
As to C12G G23A G71C C123G U129A, the “polymerase ribozyme fitness (log ratio)” value is -7.78.
With A27U C64U U78C the figure was -3.83; with C73G G77U U125G U133G, -1.69.
With A2U U116C the figure was -1.84; with G42A G44A A50C C115A, -4.02.
For C85G C115U, the “polymerase ribozyme fitness (log ratio)” value was -1.86.
The value for U9G G110U was -1.36; that for C15U G117U was -3.29; that for C72U C115U was -0.526.
With G44U A90U the figure was -2.78; with A37U A43G C86G, -2.33.
Regarding A50U U78C, the “polymerase ribozyme fitness (log ratio)” value is -2.19.
With C13A C40A C79U the figure was -2.13.
For the variant C3A A43G, the “polymerase ribozyme fitness (log ratio)” value was -3.31.
With C13A G23C A50G G113C the figure was -6.66.
The value for C8A A41U A84G was -2.05; that for C3U C13U C104A was -1.31.
The value for G93C C98U A121U was 1.01; that for G39U C72U was -1.72.
As for G36C C49A C79U C101G, the “polymerase ribozyme fitness (log ratio)” value is -2.06.
Take G47U U54C C76A U92C: the “polymerase ribozyme fitness (log ratio)” value is -5.69.
